In assay [1] the target is T1, human amylin-3(a) receptor (human, UniProt P30988 25-474; O60896 24-148).
T1 sequence (looked up) 1: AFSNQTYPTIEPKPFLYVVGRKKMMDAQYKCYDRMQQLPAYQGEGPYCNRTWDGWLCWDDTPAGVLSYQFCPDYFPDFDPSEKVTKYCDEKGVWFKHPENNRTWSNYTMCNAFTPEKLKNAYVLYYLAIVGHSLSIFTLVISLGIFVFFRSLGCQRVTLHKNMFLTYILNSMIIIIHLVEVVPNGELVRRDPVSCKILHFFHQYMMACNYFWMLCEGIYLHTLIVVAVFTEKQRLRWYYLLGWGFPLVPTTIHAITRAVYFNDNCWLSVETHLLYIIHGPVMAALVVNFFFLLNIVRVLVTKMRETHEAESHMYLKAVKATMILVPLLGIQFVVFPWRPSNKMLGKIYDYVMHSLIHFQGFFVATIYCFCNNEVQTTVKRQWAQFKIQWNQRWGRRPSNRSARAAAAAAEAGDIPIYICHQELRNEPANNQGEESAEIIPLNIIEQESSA
T1 sequence (looked up) 2: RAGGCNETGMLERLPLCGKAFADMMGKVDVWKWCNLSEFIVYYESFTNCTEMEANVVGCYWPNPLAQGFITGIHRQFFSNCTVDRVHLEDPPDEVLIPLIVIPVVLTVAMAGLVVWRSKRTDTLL
Nature of the assay: cell-based or functional assay.

For assay [2], the target named is T2, human calcitonin receptor (a) (human, UniProt P30988 25-474).
T2 sequence (looked up): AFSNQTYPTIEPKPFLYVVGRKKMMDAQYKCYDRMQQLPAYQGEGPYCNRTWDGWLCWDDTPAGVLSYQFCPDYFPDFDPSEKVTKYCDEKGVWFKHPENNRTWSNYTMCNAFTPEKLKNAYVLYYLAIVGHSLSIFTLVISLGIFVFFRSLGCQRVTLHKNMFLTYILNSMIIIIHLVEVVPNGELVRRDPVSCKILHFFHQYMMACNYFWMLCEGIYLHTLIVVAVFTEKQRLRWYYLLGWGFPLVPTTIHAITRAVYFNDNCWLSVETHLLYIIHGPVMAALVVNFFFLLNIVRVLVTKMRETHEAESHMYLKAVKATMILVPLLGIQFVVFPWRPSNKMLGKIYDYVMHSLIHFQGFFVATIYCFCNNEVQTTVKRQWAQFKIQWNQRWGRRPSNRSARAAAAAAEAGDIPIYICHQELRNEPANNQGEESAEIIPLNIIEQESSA
Nature of the assay: cell-based or functional assay.

*1 amine or outer side, *2 acyl side, *3 side chain or, on linkers, in order; H or OH if unused. Side-chain parts run from the residue outwards. The star is where a group is joined. C20 diacid = O=C(O)CCCCCCCCCCCCCCCCCCC(=O)*; C18 diacid = O=C(O)CCCCCCCCCCCCCCCCC(=O)*; γGlu = O=C(O)[C@H](CCC(=O)[*:2])N[*:1]

B1: N^1-[(4S)-4-carboxy-4-(19-carboxynonadecanoylamino)butanoyl]-[Ala1,Ser2,His3,Leu4,Ser5,Ala7,Gln8,Ala10,Glu14,His17,Asp21,Pro22,Pro27,Asp31, … (peptide)
peptide: {C20 diacid-γGlu}-ASHLSTAQTARLAEFLHHSSDPFGAIPSSTDVGPDTP-NH2
SMILES: CC[C@H](C)[C@H](NC(=O)[C@H](C)NC(=O)CNC(=O)[C@H](Cc1ccccc1)NC(=O)[C@@H]1CCCN1C(=O)[C@H](CC(=O)O)NC(=O)[C@H](CO)NC(=O)[C@H](CO)NC(=O)[C@H](Cc1c[nH]cn1)NC(=O)[C@H](Cc1c[nH]cn1)NC(=O)[C@H](CC(C)C)NC(=O)[C@H](Cc1ccccc1)NC(=O)[C@H](CCC(=O)O)NC(=O)[C@H](C)NC(=O)[C@H](CC(C)C)NC(=O)[C@H](CCCNC(=N)N)NC(=O)[C@H](C)NC(=O)[C@@H](NC(=O)[C@H](CCC(N)=O)NC(=O)[C@H](C)NC(=O)[C@@H](NC(=O)[C@H](CO)NC(=O)[C@H](CC(C)C)NC(=O)[C@H](Cc1c[nH]cn1)NC(=O)[C@H](CO)NC(=O)[C@H](C)NC(=O)CC[C@H](NC(=O)CCCCCCCCCCCCCCCCCCC(=O)O)C(=O)O)[C@@H](C)O)[C@@H](C)O)C(=O)N1CCC[C@H]1C(=O)N[C@@H](CO)C(=O)N[C@@H](CO)C(=O)N[C@H](C(=O)N[C@@H](CC(=O)O)C(=O)N[C@H](C(=O)NCC(=O)N1CCC[C@H]1C(=O)N[C@@H](CC(=O)O)C(=O)N[C@H](C(=O)N1CCC[C@H]1C(N)=O)[C@@H](C)O)C(C)C)[C@@H](C)O
As to B1, the “hAmyR3 potency, EC50 (pM); CRE-luciferase reporter in BHK cells” value (“hAmyR3 potency, EC50 (pM)” for short) in assay [1] worked out at 1.05 pM. The “hCalcR potency, EC50 (pM); CRE-luciferase reporter in BHK cells” value (“hCalcR potency, EC50 (pM)” below) in assay [2] was 1.41 pM.

B2: N^1-[(4S)-4-carboxy-4-(17-carboxyheptadecanoylamino)butanoyl]-[Ala1,Ser2,His3,Leu4,Ser5,Ala7,Gln8,Ala10,Glu14,His17,Pro25,Pro28,Pro29,Asp31,Glu35,Pro37],des-(19 … (peptide)
peptide: {C18 diacid-γGlu}-ASHLSTAQTARLAEFLHHFGPILPPTDVGSETP-NH2
SMILES: CC[C@H](C)[C@H](NC(=O)[C@@H]1CCCN1C(=O)CNC(=O)[C@H](Cc1ccccc1)NC(=O)[C@H](Cc1c[nH]cn1)NC(=O)[C@H](Cc1c[nH]cn1)NC(=O)[C@H](CC(C)C)NC(=O)[C@H](Cc1ccccc1)NC(=O)[C@H](CCC(=O)O)NC(=O)[C@H](C)NC(=O)[C@H](CC(C)C)NC(=O)[C@H](CCCNC(=N)N)NC(=O)[C@H](C)NC(=O)[C@@H](NC(=O)[C@H](CCC(N)=O)NC(=O)[C@H](C)NC(=O)[C@@H](NC(=O)[C@H](CO)NC(=O)[C@H](CC(C)C)NC(=O)[C@H](Cc1c[nH]cn1)NC(=O)[C@H](CO)NC(=O)[C@H](C)NC(=O)CC[C@H](NC(=O)CCCCCCCCCCCCCCCCC(=O)O)C(=O)O)[C@@H](C)O)[C@@H](C)O)C(=O)N[C@@H](CC(C)C)C(=O)N1CCC[C@H]1C(=O)N1CCC[C@H]1C(=O)N[C@H](C(=O)N[C@@H](CC(=O)O)C(=O)N[C@H](C(=O)NCC(=O)N[C@@H](CO)C(=O)N[C@@H](CCC(=O)O)C(=O)N[C@H](C(=O)N1CCC[C@H]1C(N)=O)[C@@H](C)O)C(C)C)[C@@H](C)O
On to B2, for which, in assay [1], the “hAmyR3 potency, EC50 (pM)” value worked out at 1.06 pM. Moreover, the “hCalcR potency, EC50 (pM)” value in assay [2] was 1.76 pM.

B3: N^1-[(4S)-4-carboxy-4-(17-carboxyheptadecanoylamino)butanoyl]-[Ala1,Ser2,His3,Leu4,Ser5,Ala7,Gln8,Ala10,Glu14, His17, Pro25, Pro28, … (peptide)
peptide: {C18 diacid-γGlu}-ASHLSTAQTARLAEFLHHFGPILPPTDVGSETY-NH2
SMILES: CC[C@H](C)[C@H](NC(=O)[C@@H]1CCCN1C(=O)CNC(=O)[C@H](Cc1ccccc1)NC(=O)[C@H](Cc1c[nH]cn1)NC(=O)[C@H](Cc1c[nH]cn1)NC(=O)[C@H](CC(C)C)NC(=O)[C@H](Cc1ccccc1)NC(=O)[C@H](CCC(=O)O)NC(=O)[C@H](C)NC(=O)[C@H](CC(C)C)NC(=O)[C@H](CCCNC(=N)N)NC(=O)[C@H](C)NC(=O)[C@@H](NC(=O)[C@H](CCC(N)=O)NC(=O)[C@H](C)NC(=O)[C@@H](NC(=O)[C@H](CO)NC(=O)[C@H](CC(C)C)NC(=O)[C@H](Cc1c[nH]cn1)NC(=O)[C@H](CO)NC(=O)[C@H](C)NC(=O)CC[C@H](NC(=O)CCCCCCCCCCCCCCCCC(=O)O)C(=O)O)[C@@H](C)O)[C@@H](C)O)C(=O)N[C@@H](CC(C)C)C(=O)N1CCC[C@H]1C(=O)N1CCC[C@H]1C(=O)N[C@H](C(=O)N[C@@H](CC(=O)O)C(=O)N[C@H](C(=O)NCC(=O)N[C@@H](CO)C(=O)N[C@@H](CCC(=O)O)C(=O)N[C@H](C(=O)N[C@@H](Cc1ccc(O)cc1)C(N)=O)[C@@H](C)O)C(C)C)[C@@H](C)O
B3: in assay [1], the “hAmyR3 potency, EC50 (pM)” value was 2.11 pM. The “hCalcR potency, EC50 (pM)” value in assay [2] was 2.78 pM.

B4: N^1-acetyl,N{Epsilon-25}-[(4S)-4-carboxy-4-(17-carboxyheptadecanoylamino)butanoyl]-[Ala1,Ser2,His3,Leu4,Ser5,Ala7,Gln8,Ala10,Glu14,His17,Asp21,Lys25,Pro28,Pro29 … (peptide)
peptide: Ac-ASHLSTAQTARLAEFLHHSSDNFGK([γGlu-C18 diacid])ILPPTDVGSNTP-NH2
SMILES: CC[C@H](C)[C@H](NC(=O)[C@H](CCCCNC(=O)CC[C@H](NC(=O)CCCCCCCCCCCCCCCCC(=O)O)C(=O)O)NC(=O)CNC(=O)[C@H](Cc1ccccc1)NC(=O)[C@H](CC(N)=O)NC(=O)[C@H](CC(=O)O)NC(=O)[C@H](CO)NC(=O)[C@H](CO)NC(=O)[C@H](Cc1c[nH]cn1)NC(=O)[C@H](Cc1c[nH]cn1)NC(=O)[C@H](CC(C)C)NC(=O)[C@H](Cc1ccccc1)NC(=O)[C@H](CCC(=O)O)NC(=O)[C@H](C)NC(=O)[C@H](CC(C)C)NC(=O)[C@H](CCCNC(=N)N)NC(=O)[C@H](C)NC(=O)[C@@H](NC(=O)[C@H](CCC(N)=O)NC(=O)[C@H](C)NC(=O)[C@@H](NC(=O)[C@H](CO)NC(=O)[C@H](CC(C)C)NC(=O)[C@H](Cc1c[nH]cn1)NC(=O)[C@H](CO)NC(=O)[C@H](C)NC(C)=O)[C@@H](C)O)[C@@H](C)O)C(=O)N[C@@H](CC(C)C)C(=O)N1CCC[C@H]1C(=O)N1CCC[C@H]1C(=O)N[C@H](C(=O)N[C@@H](CC(=O)O)C(=O)N[C@H](C(=O)NCC(=O)N[C@@H](CO)C(=O)N[C@@H](CC(N)=O)C(=O)N[C@H](C(=O)N1CCC[C@H]1C(N)=O)[C@@H](C)O)C(C)C)[C@@H](C)O
With B4, the “hAmyR3 potency, EC50 (pM)” value in assay [1] was found to be 1.16 pM. For the same molecule, the “hCalcR potency, EC50 (pM)” value in assay [2] was 1.16 pM.

B5: N^1-acetyl,N{Epsilon-25}-[(4S)-4-carboxy-4-(17-carboxyheptadecanoylamino)butanoyl]-[Ala1,Ser2,His3,Leu4,Ser5,Ala7,Gln8,Ala10,Glu14,His17,Asp21,Pro22,Lys25,Pro27 … (peptide)
peptide: Ac-ASHLSTAQTARLAEFLHHSSDPFGK([γGlu-C18 diacid])IPSSTDVGPDTP-NH2
SMILES: CC[C@H](C)[C@H](NC(=O)[C@H](CCCCNC(=O)CC[C@H](NC(=O)CCCCCCCCCCCCCCCCC(=O)O)C(=O)O)NC(=O)CNC(=O)[C@H](Cc1ccccc1)NC(=O)[C@@H]1CCCN1C(=O)[C@H](CC(=O)O)NC(=O)[C@H](CO)NC(=O)[C@H](CO)NC(=O)[C@H](Cc1c[nH]cn1)NC(=O)[C@H](Cc1c[nH]cn1)NC(=O)[C@H](CC(C)C)NC(=O)[C@H](Cc1ccccc1)NC(=O)[C@H](CCC(=O)O)NC(=O)[C@H](C)NC(=O)[C@H](CC(C)C)NC(=O)[C@H](CCCNC(=N)N)NC(=O)[C@H](C)NC(=O)[C@@H](NC(=O)[C@H](CCC(N)=O)NC(=O)[C@H](C)NC(=O)[C@@H](NC(=O)[C@H](CO)NC(=O)[C@H](CC(C)C)NC(=O)[C@H](Cc1c[nH]cn1)NC(=O)[C@H](CO)NC(=O)[C@H](C)NC(C)=O)[C@@H](C)O)[C@@H](C)O)C(=O)N1CCC[C@H]1C(=O)N[C@@H](CO)C(=O)N[C@@H](CO)C(=O)N[C@H](C(=O)N[C@@H](CC(=O)O)C(=O)N[C@H](C(=O)NCC(=O)N1CCC[C@H]1C(=O)N[C@@H](CC(=O)O)C(=O)N[C@H](C(=O)N1CCC[C@H]1C(N)=O)[C@@H](C)O)C(C)C)[C@@H](C)O
Take B5: the “hAmyR3 potency, EC50 (pM)” value in assay [1] came to 1.38 pM. In assay [2], the “hCalcR potency, EC50 (pM)” value was 1.29 pM.

The values are drawn from patent US20260209293A1 (Novo Nordisk, published 2026).
